From patent publication US7118877 come the findings set out here.

For series [1], the system named is T1, Ac-LEHD-Afc.
T1 sequence: LEHD

The test system of the next series is T2, Ac-VEID-Afc.
T2 sequence: VEID

The next series has as its system T3, Ac-WEHD-Afc.
T3 sequence: WEHD

The subject of another series is T4, Ac-DEVD-Afc.
T4 sequence: DEVD

A further series relates to T5, Ac-IETD-Afc.
T5 sequence: IETD

Series [2] addresses T6, Ac-LEHD-Afc.
T6 chain: LEHD

Where two headings read alike, the source gives them in different places.

As to Caspase 1, the “Optimum substrate at pH 7.2 (rate of AFC release, fluorogenic cleavage assay)” value (“Optimum substrate” for short) with Ac-LEHD-Afc [1] is listed as “Ac-LEHD-Afc (SEQ ID NO:5),”; with Ac-VEID-Afc, “Ac-VEID-Afc (SEQ ID NO:6)”; with Ac-WEHD-Afc, “Ac-WEHD-Afc (SEQ ID NO:4),”.

For Caspase 2, in the series on Ac-LEHD-Afc [1], the “Optimum substrate” value was “Ac-LEHD-Afc (SEQ ID NO:5)”.

Consider Caspase 3, for which the “Optimum substrate” value with Ac-DEVD-Afc is on record as “Ac-DEVD-Afc (SEQ ID NO:1)”.

Regarding Caspase 6, the “Optimum substrate” value with Ac-IETD-Afc was “Ac-IETD-Afc (SEQ ID NO:2)”.

Turning to Caspase 7, the “Optimum substrate” value with Ac-DEVD-Afc is on record as “Ac-DEVD-Afc (SEQ ID NO:1)”.

Consider Caspase 8, for which, in the series with Ac-LEHD-Afc [1], the “Optimum substrate” value is recorded as “Ac-LEHD-Afc (SEQ ID NO:5”.

In the case of Caspase 10, the “Optimum substrate” value in the series with Ac-IETD-Afc is “Ac-IETD-Afc (SEQ ID NO:2),”; with Ac-LEHD-Afc [1], “Ac-LEHD-Afc (SEQ ID NO:5)”.

B1: Caspase 9 (protein)
chain: MDEADRRLLRRCRLRLVEELQVDQLWDALLSRELFRPHMIEDIQRAGSGSRRDQARQLIIDLETRGSQALPLFISCLEDTGQDMLASFLRTNRQAAKLSKPTLENLTPVVLRPEIRKPEVLRPETPRPVDIGSGGFGDVGALESLRGNADLAYILSMEPCGHCLIINNVNFCRESGLRTRTGSNIDCEKLRRRFSSLHFMVEVKGDLTAKKMVLALLELAQQDHGALDCCVVVILSHGCQASHLQFPGAVYGTDGCPVSVEKIVNIFNGTSCPSLGGKPKLFFIQACGGEQKDHGFEVASTSPEDESPGSNPEPDATPFQEGLRTFDQLDAISSLPTPSDIFVSYSTFPGFVSWRDPKSGSWYVETLDDIFEQWAHSEDLQSLLLRVANAVSVKGIYKQMPGCFNFLRKKLFFKTS
As to B1, the “Optimum substrate” value with Ac-LEHD-Afc [2] is “Ac-LEHD-Afc (SEQ ID NO:5”.
